The experiment addresses T1, human transferrin receptor (hTfR) (human, UniProt P02786 89-760).
T1 construct: used as 0.5 uM hTfR dimer solution, immobilised on an NTA sensor chip (Ni capture plus EDC/NHS coupling); also called human TfR; TfR1
The experiment can be described thus: SPR; B = KD 1-100 nM. How it is done: NTA sensor chip (Global Life Sciences Technologies Japan K.K.) was inserted into BiacoreT200 (Global Life Sciences Technologies Japan K.K.), then the priming operation was performed three times by using running buffer containing: 10 mM HEPES pH 8.0 (Nacalai Tesque, Inc.), 150 mM NaCl (Nacalai Tesque, Inc.), 0.05% Tween 20 (Nacalai Tesque, Inc.), 0.1% BSA (SIGMA-ALDRICH) and 1.0% DMSO (FUJIFILM Wako Pure Chemical Corporation), and equilibrated at a flow rate of 30 μL/min. 350 mM EDTA solution was reacted at a flow rate of 10 μL/min for 60 seconds, 0.5 mM […] solution (Kishida Chemical Co., Ltd.) was reacted at a flow rate of 10 μL/min for 60 seconds, and then the NTA sensor chip was washed with 3 mM EDTA solution (Nacalai Tesque, Inc.) at a flow rate of 10 μL/min for 60 seconds. After mixing 50 μL each of 60 mM EDC solution (Global Life Science Technologies Japan K.K.) and 650 mM NHS solution (Global Life Science Technologies Japan K.K.), the reaction was carried out at a flow rate of 10 μL/min for 420 seconds. 150 μL of 0.5 μM hTfR dimer solution was prepared by dilution with running buffer and reacted at a flow rate of 10 μL/min for 300 seconds to immobilize hTfR on the NTA sensor chip. For the human transferrin receptor (hTfR), recombinant hTfR described in Example 2 of WO2018/124121 was used. After immobilization, capping was performed by reacting with 1.0 M ethanolamine solution (Global Life Sciences Technologies Japan K.K.) at a flow rate of 10 μL/min for 420 seconds. Peptide lysate prepared in DMSO solution to 10 mM was diluted with running buffer to be a final concentration of 10 μM peptide lysate, then peptide solutions of 100 nM, 50 nM, 25 nM, 10 nM, and 5 nM were prepared. Using the above samples, the kinetics of the peptide against hTfR was obtained by SPR measurement.
The kinetic evaluation model was single-cycle kinetics, and curve fitting was performed using Biacore T200 Evaluation Software Version 3.0 (Global Life Science Technologies Japan K.K.). The binding of the peptide to hTfR was evaluated by performing curve fitting on the obtained sensorgram by least squares method and obtaining the KD value.
In general terms: SPR reads the build-up and loss of mass on a sensor chip optically.

Starred links: 1 amine or outer side, 2 acyl side, 3 side chain; linkers in the order of their positions; H or OH if unused. Positions of bridges follow the written chain, without caps; N, C: chain ends. Non-standard residues stand in square brackets, D forms with d. Primed or numbered codes have the meaning given here. No end group written: not given here. *: point of attachment. E(PEG8Me) = (S)-30-amino-27-oxo-2,5,8,11,14,17,20,23-octaoxa-26-azahentriacontane-31-oic acid, COCCOCCOCCOCCOCCOCCOCCOCCNC(=O)CC[C@H](N[*:1])C(=O)[*:2]; Phe(4-OMe)(3) = (S)-2-amino-3-(4-methoxyphenyl)propanoic acid (source code F4OMe), COc1ccc(C[C@H](N[*:1])C(=O)[*:2])cc1; F4aao = (S)-2-amino-3-(4-(carboxymethoxy)phenyl)propanoic acid, O=C([C@H](Cc1ccc(OCC(=O)[*:3])cc1)N[*:1])[*:2]; Phe(4-OMe) = F4OMe = (S)-2-amino-3-(4-methoxyphenyl)propanoic acid, COc1ccc(C[C@H](N[*:1])C(=O)[*:2])cc1; Trp(1-CH2CO) = O=C([C@H](Cc1cn(CC(=O)[*:3])c2ccccc12)N[*:1])[*:2]; Phe(3-COOH) = N[C@@H](Cc1cccc(C(=O)O)c1)C(=O)O; Trp(7-aza) = N[C@@H](Cc1c[nH]c2ncccc12)C(=O)O; NH(CH2CH2O)8Me = COCCOCCOCCOCCOCCOCCOCCOCCN*; NMePhe(3-Cl) = CN[C@@H](Cc1cccc(Cl)c1)C(=O)O; 3Pal(6-NH2) = Nc1ccc(C[C@H](N)C(=O)O)cn1; NMe3Pal = CN[C@@H](Cc1cccnc1)C(=O)O; NMe4Pal = CN[C@@H](Cc1ccncc1)C(=O)O; NMeY = CN[C@@H](Cc1ccc(O)cc1)C(=O)O; 3Pal = N[C@@H](Cc1cccnc1)C(=O)O; 4Pal = N[C@@H](Cc1ccncc1)C(=O)O

T1 sequence (P02786 89-760 limits assumed): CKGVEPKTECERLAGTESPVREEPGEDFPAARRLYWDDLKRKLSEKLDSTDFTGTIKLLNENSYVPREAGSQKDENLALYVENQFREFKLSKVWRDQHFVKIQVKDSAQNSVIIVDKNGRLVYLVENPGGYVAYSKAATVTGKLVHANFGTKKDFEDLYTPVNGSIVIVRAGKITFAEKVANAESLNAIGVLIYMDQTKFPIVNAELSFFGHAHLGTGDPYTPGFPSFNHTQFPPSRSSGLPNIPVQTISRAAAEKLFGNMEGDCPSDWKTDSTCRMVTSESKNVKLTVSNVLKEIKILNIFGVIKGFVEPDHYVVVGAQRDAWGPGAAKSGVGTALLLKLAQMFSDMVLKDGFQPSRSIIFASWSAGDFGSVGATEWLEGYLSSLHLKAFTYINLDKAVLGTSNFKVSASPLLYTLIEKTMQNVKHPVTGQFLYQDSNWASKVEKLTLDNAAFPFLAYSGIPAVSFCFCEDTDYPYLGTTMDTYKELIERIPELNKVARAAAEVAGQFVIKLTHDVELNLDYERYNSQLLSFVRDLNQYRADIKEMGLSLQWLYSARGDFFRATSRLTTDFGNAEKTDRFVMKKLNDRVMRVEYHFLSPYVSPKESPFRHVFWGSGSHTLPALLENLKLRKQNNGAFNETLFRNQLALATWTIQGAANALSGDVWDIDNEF

B1: 894_0319 (peptide)
peptide: {CH2CO}-AV[NMePhe(3-Cl)]VWNY[4Pal]IIRRF[NMeY]C-NH2
modifications: thioether N-15; also: linker PEG4c
B1 yielded a KD of 1 to 100 nM.

B2: 894_0320 (peptide)
peptide: {CH2CO}-AV[NMePhe(3-Cl)]VWN[3Pal(6-NH2)][4Pal]IIRR[4Pal][NMeY]C-NH2
modifications: thioether N-15; also: linker PEG4c
The molecule B2 came in with a KD of 1 to 100 nM.

B3: 894_0370 (peptide)
peptide: {CH2CO}-AV[NMePhe(3-Cl)]VWNY[3Pal]IIRE(NH(CH2CH2O)8Me)[Phe(3-COOH)][NMeY]C-NH2
modifications: thioether N-15; also: linker PEG4c
As to B3, the KD lay in the range of 1 to 100 nM.

B4: 894_0347 (peptide)
peptide: Ac-AV[NMePhe(3-Cl)]V[Trp(1-CH2CO)]N[3Pal(6-NH2)][3Pal]IIRR[Phe(3-COOH)][NMeY]C
modifications: thioether (positions not given here); not fully specified (C-terminus, bridges)
B4: the KD is 1 to 100 nM.

B5: 894_0343 (peptide)
peptide: Ac-AV[NMePhe(3-Cl)]V[Trp(1-CH2CO)]NY[F4aao]IIRR[4Pal][NMeY]C
modifications: thioether (positions not given here); not fully specified (C-terminus, bridges)
In turn, B5 came in with a KD of 1 to 100 nM.

B6: 894_0340 (peptide)
peptide: Ac-AV[NMePhe(3-Cl)]V[Trp(1-CH2CO)]NY[3Pal]IIR[E(PEG8Me)]F[NMeY]C
modifications: thioether (positions not given here); not fully specified (C-terminus, bridges)
B6 showed a KD of 1 to 100 nM.

B7: 894_0365 (peptide)
peptide: {CH2CO}-AV[NMePhe(3-Cl)]VWNY[Phe(4-OMe)]IIRE(NH(CH2CH2O)8Me)[Phe(3-COOH)][NMeY]C-NH2
modifications: thioether N-15; also: linker PEG4c
B7 registered a KD of 1 to 100 nM.

B8: 894_0322 (peptide)
peptide: Ac-AV[NMe3Pal]VWN[3Pal(6-NH2)][Phe(4-OMe)(3)]IIRRF[NMeY]C
modifications: thioether (positions not given here); not fully specified (C-terminus, bridges)
Regarding B8, the KD was 1 to 100 nM.

B9: 894_0341 (peptide)
peptide: Ac-AV[NMePhe(3-Cl)]V[Trp(1-CH2CO)]NY[3Pal]IIRR[Phe(3-COOH)][NMeY]C
modifications: thioether (positions not given here); not fully specified (C-terminus, bridges)
On to B9, for which the KD fell in the range of 1 to 100 nM.

B10: 894_0324 (peptide)
peptide: Ac-AV[NMePhe(3-Cl)]V[Trp(7-aza)]NY[Phe(4-OMe)(3)]IIRR[4Pal][NMeY]C
modifications: thioether (positions not given here); not fully specified (C-terminus, bridges)
On to B10, for which the KD was 1 to 100 nM.

B11: 894_0334 (peptide)
peptide: Ac-AV[NMePhe(3-Cl)]V[Trp(1-CH2CO)]NY[Phe(4-OMe)(3)]IIR[E(PEG8Me)]F[NMeY]C
modifications: thioether (positions not given here); not fully specified (C-terminus, bridges)
The molecule B11 came in with a KD of 1 to 100 nM.

B12: 894_0362 (peptide)
peptide: {CH2CO}-AV[NMePhe(3-Cl)]VWNY[F4aao]IIRE(NH(CH2CH2O)8Me)F[NMeY]C
modifications: thioether N-15; not fully specified (C-terminus)
B12 gave an equilibrium dissociation constant (KD) of 1 to 100 nM.

B13: 894_0345 (peptide)
peptide: Ac-AV[NMePhe(3-Cl)]V[Trp(1-CH2CO)]NY[Phe(4-OMe)(3)]IIR[E(PEG8Me)][4Pal][NMeY]C
modifications: thioether (positions not given here); not fully specified (C-terminus, bridges)
Turning to B13, the KD was 1 to 100 nM.

B14: 894_0348 (peptide)
peptide: Ac-AV[NMePhe(3-Cl)]V[Trp(1-CH2CO)]N[3Pal(6-NH2)][F4aao]IIRR[4Pal][NMeY]C
modifications: thioether (positions not given here); not fully specified (C-terminus, bridges)
B14 showed a KD of 1 to 100 nM.

B15: 894_0369 (peptide)
peptide: {CH2CO}-AV[NMePhe(3-Cl)]VWN[3Pal(6-NH2)][F4aao]IIRR[4Pal][NMeY]C-NH2
modifications: thioether N-15; also: linker PEG4c
Consider B15, for which the KD is 1 to 100 nM.

B16: 894_0351 (peptide)
peptide: {CH2CO}-AV[NMePhe(3-Cl)]V[Trp(1-CH2CO)]NY[3Pal]IIRE(NH(CH2CH2O)8Me)[4Pal][NMeY]C-NH2
modifications: thioether N-15; also: linker PEG4c
In the case of B16, the equilibrium dissociation constant (KD) fell in the range of 1 to 100 nM.

B17: 894_0352 (peptide)
peptide: {CH2CO}-AV[NMePhe(3-Cl)]V[Trp(1-CH2CO)]NY[3Pal]IIRE(NH(CH2CH2O)8Me)[Phe(3-COOH)][NMeY]C-NH2
modifications: thioether N-15; also: linker PEG4c
Molecule B17 returned a KD of 1 to 100 nM.

B18: 894_0323 (peptide)
peptide: Ac-AV[NMe4Pal]VWN[3Pal(6-NH2)][Phe(4-OMe)(3)]IIRRF[NMeY]C
modifications: thioether (positions not given here); not fully specified (C-terminus, bridges)
In turn, B18 yielded a dissociation constant KD of 1 to 100 nM.

B19: 894_0337 (peptide)
peptide: Ac-AV[NMePhe(3-Cl)]V[Trp(1-CH2CO)]N[3Pal(6-NH2)][F4aao]IIRRF[NMeY]C
modifications: thioether (positions not given here); not fully specified (C-terminus, bridges)
In the case of B19, the KD fell in the range of 1 to 100 nM.

B20: 894_0339 (peptide)
peptide: Ac-AV[NMePhe(3-Cl)]V[Trp(1-CH2CO)]N[3Pal(6-NH2)][Phe(4-OMe)(3)]IIRR[Phe(3-COOH)][NMeY]C
modifications: thioether (positions not given here); not fully specified (C-terminus, bridges)
As to B20, the KD lay in the range of 1 to 100 nM.

B21: 894_0368 (peptide)
peptide: {CH2CO}-AV[NMePhe(3-Cl)]VWN[3Pal(6-NH2)][F4aao]IIRR[Phe(3-COOH)][NMeY]C
modifications: thioether N-15; not fully specified (C-terminus)
Turning to B21, the KD is 1 to 100 nM.

B22: 894_0371 (peptide)
peptide: {CH2CO}-AV[NMePhe(3-Cl)]VWNY[3Pal]IIRE(NH(CH2CH2O)8Me)[4Pal][NMeY]C-NH2
modifications: thioether N-15; also: linker PEG4c
B22 registered a KD of 1 to 100 nM.

B23: 894_0349 (peptide)
peptide: Ac-AV[NMePhe(3-Cl)]V[Trp(1-CH2CO)]N[3Pal(6-NH2)][F4aao]IIRR[Phe(3-COOH)][NMeY]C
modifications: thioether (positions not given here); not fully specified (C-terminus, bridges)
Consider B23, for which the KD was 1 to 100 nM.

B24: 894_0325 (peptide)
peptide: Ac-AV[NMePhe(3-Cl)]VWNY[Phe(4-OMe)(3)]IIRR[4Pal][NMe3Pal]C
modifications: thioether (positions not given here); not fully specified (C-terminus, bridges)
As for B24, the dissociation constant (KD) fell in the range of 1 to 100 nM.

B25: 894_0350 (peptide)
peptide: Ac-AV[NMePhe(3-Cl)]V[Trp(1-CH2CO)]NY[F4aao]IIRE(NH(CH2CH2O)8Me)[4Pal][NMeY]C
modifications: thioether (positions not given here); not fully specified (C-terminus, bridges)
B25 gave a KD of 1 to 100 nM.

B26: 894_0344 (peptide)
peptide: Ac-AV[NMePhe(3-Cl)]V[Trp(1-CH2CO)]NY[Phe(4-OMe)(3)]IIR[E(PEG8Me)][Phe(3-COOH)][NMeY]C
modifications: thioether (positions not given here); not fully specified (C-terminus, bridges)
For B26, the KD was in the range of 1 to 100 nM.

By KD is commonly meant a measure of binding affinity in units of concentration. A higher KD goes with lower affinity.

(Values after US20260116920A1 (PEPTIDREAM, published 2026).)
